According to PMC4520572:

Target: soluble neuronal SNARE complex (unlabeled) (UniProt P32851)
Sequence (P32851 1-265 S249C/K253C, chain 1 of 3): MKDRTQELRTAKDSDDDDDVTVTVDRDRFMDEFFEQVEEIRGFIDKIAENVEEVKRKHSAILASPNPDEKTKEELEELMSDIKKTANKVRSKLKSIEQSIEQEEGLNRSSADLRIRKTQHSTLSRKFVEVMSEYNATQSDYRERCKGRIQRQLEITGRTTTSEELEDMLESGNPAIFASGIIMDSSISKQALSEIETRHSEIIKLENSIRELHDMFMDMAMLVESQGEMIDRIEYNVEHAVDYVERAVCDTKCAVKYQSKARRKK
Sequence (P60881 other isoform, or with tags, fused parts or gaps, chain 2 of 3, further chain): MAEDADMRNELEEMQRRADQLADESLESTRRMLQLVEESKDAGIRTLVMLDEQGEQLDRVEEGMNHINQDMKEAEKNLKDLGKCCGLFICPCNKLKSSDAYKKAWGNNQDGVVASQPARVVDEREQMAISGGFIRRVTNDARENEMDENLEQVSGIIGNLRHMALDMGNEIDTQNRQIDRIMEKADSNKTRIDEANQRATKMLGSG
Sequence (P63045 1-96, chain 3 of 3, further chain): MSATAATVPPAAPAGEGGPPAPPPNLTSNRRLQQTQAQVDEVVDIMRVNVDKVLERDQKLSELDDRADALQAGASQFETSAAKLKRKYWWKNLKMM

N-Ethylmaleimide-sensitive factor (NSF), sequence (P18708 whole entry): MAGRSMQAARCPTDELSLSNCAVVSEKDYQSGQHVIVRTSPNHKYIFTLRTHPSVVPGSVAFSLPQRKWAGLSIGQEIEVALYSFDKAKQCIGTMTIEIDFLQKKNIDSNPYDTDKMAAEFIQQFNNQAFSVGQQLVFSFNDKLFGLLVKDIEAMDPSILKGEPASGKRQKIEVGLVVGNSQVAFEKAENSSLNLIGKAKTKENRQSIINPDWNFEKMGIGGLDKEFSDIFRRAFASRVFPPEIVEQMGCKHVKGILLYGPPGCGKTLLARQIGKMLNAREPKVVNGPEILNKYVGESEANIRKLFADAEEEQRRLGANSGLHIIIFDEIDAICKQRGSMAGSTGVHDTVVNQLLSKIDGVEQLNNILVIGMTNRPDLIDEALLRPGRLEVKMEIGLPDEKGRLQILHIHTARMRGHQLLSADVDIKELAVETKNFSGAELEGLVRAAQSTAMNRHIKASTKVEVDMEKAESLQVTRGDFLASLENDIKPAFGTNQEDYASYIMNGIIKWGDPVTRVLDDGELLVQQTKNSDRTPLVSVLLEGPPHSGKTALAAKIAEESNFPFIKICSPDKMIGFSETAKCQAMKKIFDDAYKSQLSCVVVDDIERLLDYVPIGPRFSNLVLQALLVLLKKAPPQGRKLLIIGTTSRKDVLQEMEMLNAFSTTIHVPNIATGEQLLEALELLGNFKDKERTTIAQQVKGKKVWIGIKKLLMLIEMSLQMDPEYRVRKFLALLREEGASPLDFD
α-soluble NSF attachment protein (α-SNAP), sequence (P54921 whole entry): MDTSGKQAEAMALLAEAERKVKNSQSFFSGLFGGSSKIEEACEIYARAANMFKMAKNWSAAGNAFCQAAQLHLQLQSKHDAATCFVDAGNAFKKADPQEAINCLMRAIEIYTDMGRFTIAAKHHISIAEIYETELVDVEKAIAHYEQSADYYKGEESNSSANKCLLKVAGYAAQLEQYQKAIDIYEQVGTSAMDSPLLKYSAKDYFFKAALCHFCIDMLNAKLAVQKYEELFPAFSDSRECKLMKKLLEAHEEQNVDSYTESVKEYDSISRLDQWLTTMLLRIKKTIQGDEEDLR

Substance	SNARE-dependent activation of the ATPase activity of NSF (coupled ATPase assay, 37 °C, with α-SNAP, KCl and NaCl omitted) [fold]	SNARE-dependent activation of the ATPase activity of NSF (coupled ATPase assay, 37 °C; activation was dependent on α-SNAP) [fold]
N-Ethylmaleimide-sensitive factor (NSF) (from UniProt P18708 1-744) (enzyme)	26	
α-soluble NSF attachment protein (α-SNAP) (from UniProt P54921 1-295) (natural protein)		26
